Measured values taken from the supplement of paper PMC10126150.
± gives the standard deviation of the averaged measurements.

Tested on: ATP
Experiment: switch fluorescence ratio, 500 uM ATP over buffer (Cy3 cluster intensity, sum of 5 cycles each) (fold (ratio)); higher = stronger signal-on switching upon ATP binding; sequences stand for … in TCGTCGGCAGCGTCAGATGTGTATAAGAGACAGTTTTTTTTTTTTTTTTTTTTTTTTT…TC
Settings: aptamer strand: ATP DNA aptamer (quencher-CACCTGGGGGAGTATTGCGGAGGAAGG + anchor), 100 nM annealed; ATP concentration: 500 uM
Outline: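 Between each of five buffer/ATP cycles, the flow-cell was stripped with NaOH and re-annealed. Each cycle imaged Cy3-labelled switching-strand clusters, annealed to 100 nM quencher-labelled ATP aptamer on a modified Illumina MiSeq flow-cell, first in selection buffer and then after 15 min with 500 uM ATP at 22 °C. The fluorescence ratio is summed target-cycle over summed buffer-cycle Cy3 intensity per cluster, averaged per switch-domain sequence, with clusters outside 100-1000 RFU excluded.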
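Also: ATP exposure 15 min at 22 °C before imaging.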

Sequence | switch fluorescence ratio
TAGGAGAGCC | 1.03 ± 0.017
TCTTGTTTTG | 0.994 ± 0.048
TTCGGAAGTT | 0.966 ± 0.021
GGGGAGTTTC | 1.065 ± 0.0042
CTACGTCATT | 1.41 ± 0.095
GCTTTGTATG | 0.9678 ± 0.0094
TTATCATCTA | 1.02 ± 0.013
CGGGGAAGCG | 1.01 ± 0.021
TATGACGACG | 1.04 ± 0.045
TAGCATTGGT | 0.9903 ± 0.0016
AAGAAGAGGA | 1 ± 0.011
GCTCCTAGCT | 1.07 ± 0.028
TTGATGTGCT | 1.01 ± 0.013
GGTAGATGTC | 1.01 ± 0.054
TCTTGGGGGC | 1.01 ± 0.052
ATGGCTGGGT | 0.971 ± 0.029
AGGCAGACTT | 1.004 ± 0.0089
GGTGTTTGTA | 1.005 ± 0.0094
ATTAAAGGGG | 1 ± 0.023
GAAATTCACA | 1.04 ± 0.031
TTGAGTTTGA | 0.994 ± 0.011
GGGGGGATTG | 0.99 ± 0.025
GTGTTTGGGT | 0.978 ± 0.03

Sequence | switch fluorescence ratio
CAATTACTTT | 1.06 ± 0.026
ACGTCGCCGG | 0.987 ± 0.038
CATTTGCTCT | 1 ± 0.013
GCGCATCATT | 0.986 ± 0.025
GAACGCTTGG | 1.05 ± 0.023
CATCTAAGGG | 0.983 ± 0.042
ATCGCCTTGC | 1.163 ± 0.001
TTTTTTCGAA | 0.998 ± 0.032
TTCGTTATGT | 0.98 ± 0.027
GAGTTAAACA | 0.994 ± 0.021
GTAATGTGGG | 0.972 ± 0.022
GATAGGGAGG | 0.993 ± 0.016
GGCCGTAGAA | 0.985 ± 0.032
ACCTGGGCAG | 1.07 ± 0.015
AATAAGAAAT | 0.994 ± 0.015
ACGGGGTCT | 1.02 ± 0.012
TGTGGAAAAA | 1.011 ± 0.0081
ATCTAAGTTC | 1.01 ± 0.017
GGTTGACGGG | 0.985 ± 0.055
TTATGAGAGC | 0.964 ± 0.022
GGGGATAGGG | 0.985 ± 0.016
CTTTTAGAGA | 1.02 ± 0.015
TACTCGGATT | 0.996 ± 0.015

Sequence | switch fluorescence ratio
GCTGGCCGGT | 0.989 ± 0.021
AAGGAGGATG | 0.995 ± 0.042
ATTACGTTTT | 0.989 ± 0.039
CTTAGAAGAT | 0.983 ± 0.044
CATGTAGTGC | 1.03 ± 0.089
AGGGATAAGC | 0.988 ± 0.021
CCTTGATCTG | 1.06 ± 0.02
TCGTTACAGA | 1.02 ± 0.045
GGGTTGGAGG | 0.995 ± 0.021
TTACTGGGGT | 1.02 ± 0.021
ATTAGTAGCA | 1 ± 0.014
CCGCCTTGGG | 1.09 ± 0.029
TTTGGGTGTG | 0.983 ± 0.016
TGGGTAGGTT | 1.06 ± 0.035
CATGATAAT | 0.998 ± 0.022
CGGGCGGGGC | 1.04 ± 0.028
CCTGGGGATA | 1.04 ± 0.024
GGCGCGATGG | 1.55 ± 0.13
AATCGTGGAA | 1.01 ± 0.019
TGCTATTATG | 0.988 ± 0.048
TAGGTTCTTT | 0.995 ± 0.022
GGGTTGAATG | 0.978 ± 0.014
GGATAGAGTA | 1.01 ± 0.0075

Sequence | switch fluorescence ratio
TTTGACGACA | 1.11 ± 0.1
CCTGCTTGGT | 1.029 ± 0.0082
CATATATTGG | 1.02 ± 0.05
GATGTTCCGT | 0.9958 ± 0.0049
ATCGTCAGAA | 0.969 ± 0.0068
CGAGTTGTTG | 1.014 ± 0.0072
TCTTTCAGTT | 0.9816 ± 0.0082
GGCAACTGGG | 1.02 ± 0.05
GGTTTTGGCC | 1.02 ± 0.03
GTTAAAAGGC | 0.986 ± 0.023
AGGCTAGGAG | 0.994 ± 0.053
TCGAGGACTA | 0.999 ± 0.032
CGGTAAATAA | 1.01 ± 0.021
GCTGATGTAT | 0.999 ± 0.026
TACAGCAGGG | 1.04 ± 0.012
GCAGAGGGGA | 0.981 ± 0.039
CAGGGGCTCG | 1.01 ± 0.036
ACCGTGTCGT | 0.989 ± 0.095
GTATGGAGAG | 1.0111 ± 6.5e-05
TTTCGGGGAC | 1.43 ± 0.62
TTTGGGACGG | 0.999 ± 0.065
GGACTGGATG | 1 ± 0.031
ATACCTGGTC | 1.053 ± 0.0017

Sequence | switch fluorescence ratio
ATGTTTTAAC | 1.02 ± 0.039
GCTTCAGGGA | 1.02 ± 0.019
CGTATGGGGG | 1.07 ± 0.08
TTGGTTTTGT | 0.995 ± 0.024
ATGTGACGCA | 1.13 ± 0.012
TGGTGGAGGT | 0.977 ± 0.011
TAAGGGTGTG | 1 ± 0.023
TCCATGTTGA | 1.03 ± 0.019
GGGAATACGT | 1.03 ± 0.029
AATGGAGAAC | 1.01 ± 0.028
ACTTTGAA | 1.01 ± 0.037
GAGGTTGGAG | 1 ± 0.00098
CGGGCCACGA | 1.04 ± 0.026
TCGTGCAACA | 0.983 ± 0.025
ATTGTGCCTG | 1.083 ± 0.0093
TGGTGTGAAT | 1.01 ± 0.036
TTGCGCGGAC | 2.34 ± 1.5
TTGGGCCCGT | 1.02 ± 0.075
TTTAAGGTGA | 1.04 ± 0.053
GGGGGCGGGC | 1.01 ± 0.081
AGTTGGAAAG | 0.977 ± 0.013
AATGTTAATG | 0.94 ± 0.019
ACGGGTTGGC | 1.064 ± 0.0044

Sequence | switch fluorescence ratio
TACGGTCCTG | 0.99156 ± 0.00092
GCGGTATGCT | 0.9517 ± 0.0058
CACGTTCAGC | 1.04 ± 0.035
GGGGTTATCA | 0.99 ± 0.014
GTGTTTGGTT | 1.01 ± 0.053
GTTTTGGTTA | 1.01 ± 0.014
ATGGTGCTGG | 0.983 ± 0.035
GGGAGGAAGG | 0.974 ± 0.028
AGAGGGATGG | 0.9919 ± 0.0076
CGTGAGGGTG | 1.01 ± 0.079
TGCTCTGCGT | 1.17 ± 0.012
GTTGGAGGTT | 0.9921 ± 0.0052
GCATTACTTG | 1.16 ± 0.027
CGGTGGAATC | 1.36 ± 0.45
CGTGAGGGTA | 1.02 ± 0.028
GAAGGGGTTT | 0.999 ± 0.03
TGAGGGCAGC | 0.993 ± 0.026
TTACATATGG | 1.024 ± 0.0032
ATAGGAGTAT | 1.01 ± 0.026
GCTATGGGGA | 1.02 ± 0.02
GGAGGGCTTT | 0.956 ± 0.064
TTTTTTGGCG | 1.02 ± 0.15
AAATAATGT | 1.02 ± 0.016

Sequence | switch fluorescence ratio
TTTTCATTCG | 1 ± 0.033
TTTTCAGAAG | 0.997 ± 0.013
TGCATTTAGT | 1.006 ± 0.0086
TTCATTCGCT | 1.52 ± 0.056
TCGGGGTTCA | 1.04 ± 0.03
GAGGTCGGCA | 1.02 ± 0.011
AGTTTAAGAA | 0.98 ± 0.031
AAGTGCATGG | 0.986 ± 0.036
CGTTGGGTTG | 0.987 ± 0.024
TTGCACGTTT | 1.27 ± 0.19
GCTTCTTGTT | 1 ± 0.015
CAAAAATTGG | 1 ± 0.041
GCTGGTTTGT | 0.989 ± 0.013
TTACTTCTTT | 0.976 ± 0.027
GAGGTGGTGC | 0.966 ± 0.072
GAACCGGTAC | 1.21 ± 0.019
TAGCTGTACA | 1.01 ± 0.015
ATAGTGATGT | 0.995 ± 0.04
TTAGAGAGGC | 0.961 ± 0.054
